Data published in paper PMC7736784.
Where two headings read alike, the source gives them in different places.

Key:
[1] = biological target: Sso7d-NanoLuc large fragment fusion
[2] = biological target: Sso7d-NanoLuc large fragment fusion; remark: listed apart in the source

Kd [1]	Kd [2]	Substance
190 µM		NS2-Stoffel fusion (NanoLuc small fragment NS2)
	0.18 µM	NS3
